Changes are numbered by the printed parent chain. In names and notes the source's numbering stands.
T1: PUF4 RNA-binding domain (Saccharomyces cerevisiae, UniProt P25339 537-888)
T1 sequence: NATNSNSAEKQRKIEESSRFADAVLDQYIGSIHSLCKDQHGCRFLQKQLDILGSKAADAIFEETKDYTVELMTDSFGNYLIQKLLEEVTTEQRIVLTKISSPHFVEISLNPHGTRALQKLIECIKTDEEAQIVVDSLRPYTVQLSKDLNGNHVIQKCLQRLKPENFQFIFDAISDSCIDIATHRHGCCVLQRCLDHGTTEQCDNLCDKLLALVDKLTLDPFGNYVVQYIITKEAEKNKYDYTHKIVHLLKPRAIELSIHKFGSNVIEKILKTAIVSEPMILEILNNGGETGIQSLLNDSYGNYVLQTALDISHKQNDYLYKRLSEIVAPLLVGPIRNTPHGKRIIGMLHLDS

B1: Id_ii_S2_P3E.4_K3.3_C3.2_[T-1C]_H3.3_A3.1_F3.1_T3.2 (ssRNA)
RNA: UUUGAUUAAUAUGAUAUCGUUCUUUCUCCACACUAUAUAUUCUUUCUCGAUAUCAUAUUAAUCUUU
B2: Id_ii_S2_P3E.4_K3.3_C3.2_[T-1C]_H3.3_A3.1_F3.1_T3.2_[T9A]_[A10T] (ssRNA)
RNA: B1 RNA with U38A, A39U
B3: Id_ii_S2_P3E.4_K3.3_C3.2_[C-2A]_H3.3_A3.1_F3.1_T3.2_[A10C] (ssRNA)
RNA: B1 RNA with C28A, C29U, A39C
B4: Id_ii_S2_P3E.4_K3.3_C3.2_H3.3_A3.1_F3.1_T3.2_[T9A]_[A10T] (ssRNA)
RNA: B1 RNA with C29U, U38A, A39U
B5: Id_ii_S2_P3E.4_K3.3_C3.2_[C-2T]_H3.3_A3.1_F3.1_T3.2_[T9C]_[A10T] (ssRNA)
RNA: B1 RNA with C28U, C29U, U38C, A39U
B6: Id_ii_S2_P3E.4_K3.3_C3.2_[C-2G]_H3.3_A3.1_F3.1_T3.2_[T9C]_[A10T] (ssRNA)
RNA: B1 RNA with C28G, C29U, U38C, A39U
B7: Id_ii_S2_P3E.4_K3.3_C3.2_[C-2T]_[T-1C]_H3.3_A3.1_F3.1_T3.2_[T9C]_[A10C] (ssRNA)
RNA: B1 RNA with C28U, U38C, A39C
B8: Id_ii_S2_P3E.4_K3.3_C3.2_[T-1A]_H3.3_A3.1_F3.1_T3.2_[T9C]_[A10G] (ssRNA)
RNA: B1 RNA with C29A, U38C, A39G
B9: Id_ii_S2_P3E.4_K3.3_C3.2_[C-2A]_[T-1A]_H3.3_A3.1_F3.1_T3.2_[T9A] (ssRNA)
RNA: B1 RNA with C28A, C29A, U38A
B10: Id_ii_S2_P3E.4_K3.3_C3.2_[C-2T]_[T-1C]_H3.3_A3.1_F3.1_T3.2_[T9C]_[A10T] (ssRNA)
RNA: B1 RNA with C28U, U38C, A39U
B11: Id_ii_S2_P3E.4_K3.3_C3.2_[C-2T]_[T-1A]_H3.3_A3.1_F3.1_T3.2_[T9C]_[A10T] (ssRNA)
RNA: B1 RNA with C28U, C29A, U38C, A39U
B12: Id_ii_S2_P3E.4_K3.3_C3.2_[C-2A]_H3.3_A3.1_F3.1_T3.2_[T9C]_[A10G] (ssRNA)
RNA: B1 RNA with C28A, C29U, U38C, A39G
B13: Id_ii_S2_P3E.4_K3.3_C3.2_H3.3_A3.1_F3.1_T3.2_[T9G]_[A10C] (ssRNA)
RNA: B1 RNA with C29U, U38G, A39C
B14: Id_ii_S2_P3E.4_K3.3_C3.2_[T-1A]_H3.3_A3.1_F3.1_T3.2_[T9C]_[A10C] (ssRNA)
RNA: B1 RNA with C29A, U38C, A39C
B15: Id_ii_S2_P3E.4_K3.3_C3.2_[C-2A]_H3.3_A3.1_F3.1_T3.2_[T9A]_[A10T] (ssRNA)
RNA: B1 RNA with C28A, C29U, U38A, A39U
B16: Id_ii_S2_P3E.4_K3.3_C3.2_[C-2G]_H3.3_A3.1_F3.1_T3.2 (ssRNA)
RNA: B1 RNA with C28G, C29U
B17: Id_ii_S2_P3E.4_K3.3_C3.2_[C-2G]_[T-1C]_H3.3_A3.1_F3.1_T3.2_[T9A] (ssRNA)
RNA: B1 RNA with C28G, U38A
B18: Id_ii_S2_P3E.4_K3.3_C3.2_[C-2A]_H3.3_A3.1_F3.1_T3.2_[T9A] (ssRNA)
RNA: B1 RNA with C28A, C29U, U38A
B19: Id_ii_S2_P3E.4_K3.3_C3.2_[C-2A]_H3.3_A3.1_F3.1_T3.2_[T9C]_[A10C] (ssRNA)
RNA: B1 RNA with C28A, C29U, U38C, A39C
B20: Id_ii_S2_P3E.4_K3.3_C3.2_[C-2G]_[T-1C]_H3.3_A3.1_F3.1_T3.2_[T9A]_[A10C] (ssRNA)
RNA: B1 RNA with C28G, U38A, A39C
B21: Id_ii_S2_P3E.4_K3.3_C3.2_[C-2G]_H3.3_A3.1_F3.1_T3.2_[T9A]_[A10C] (ssRNA)
RNA: B1 RNA with C28G, C29U, U38A, A39C
B22: Id_ii_S2_P3E.4_K3.3_C3.2_[C-2A]_H3.3_A3.1_F3.1_T3.2_[T9C] (ssRNA)
RNA: B1 RNA with C28A, C29U, U38C
B23: Id_ii_S2_P3E.4_K3.3_C3.2_H3.3_A3.1_F3.1_T3.2_[A10T] (ssRNA)
RNA: B1 RNA with C29U, A39U
B24: Id_ii_S2_P3E.4_K3.3_C3.2_[C-2A]_[T-1C]_H3.3_A3.1_F3.1_T3.2_[A10T] (ssRNA)
RNA: B1 RNA with C28A, A39U

Biological target: T1, PUF4 RNA-binding domain
Test: Mg; RNA-MaP; 20 mM Na-HEPES pH 7.4, 30 mM KOAc, 0.75 mM MgCl2, 0.1% Tween-20, 5% glycerol, 0.1 mg/mL BSA, 2 mM DTT; 25 C; 0.0125-409.6 nM protein
Settings: tags: N-His6-TEV cleaved; C-SNAP kept, Cy3B-labelled; label: tethered on chip by stalled RNA polymerase

Binder	Kd
B1	194 nM
B2	1890 nM
B3	11.8 nM
B4	776 nM
B5	670 nM
B6	1.98 nM
B7	1970 nM
B8	> 2300 nM
B9	2020 nM
B10	1260 nM
B11	1860 nM
B12	116 nM
B13	1600 nM
B14	2100 nM
B15	32.2 nM
B16	0.551 nM
B17	38.5 nM
B18	27.3 nM
B19	15.5 nM
B20	31.9 nM
B21	0.742 nM
B22	21.7 nM
B23	399 nM
B24	868 nM
UCUCUUUGUUUUAUGAUCUCUU (ssRNA) [Ib_S1_P5E.1_K5.1_C5.1_H5.1_[A4T]_A5.1_F5.1_[T9G]_T5.1]	981 nM
UCUCUUUGUGUUAUAAUCUCUU (ssRNA) [Ib_S1_P5E.1_K5.1_C5.1_H5.1_[A4G]_A5.1_F5.1_[T9A]_T5.1]	57.8 nM
UCUCUUUGUCUUAUCAUCUCUU (ssRNA) [Ib_S1_P5E.1_K5.1_C5.1_H5.1_[A4C]_A5.1_F5.1_[T9C]_T5.1]	2040 nM
UCUCUUUGUGUUAUGAUCUCUU (ssRNA) [Ib_S1_P5E.1_K5.1_C5.1_H5.1_[A4G]_A5.1_F5.1_[T9G]_T5.1]	750 nM
UCUCUUUGCAUUAUAAUCUCUU (ssRNA) [Ib_S1_P5E.1_K5.1_C5.1_H5.1_[T3C]_A5.1_F5.1_[T9A]_T5.1]	1400 nM

From PMC9352680, “A comprehensive thermodynamic model for RNA binding by the Saccharomyces cerevisiae Pumilio protein PUF4”
